Data on 14 molecules can be found in patent publication US20120172295A1 (INDIANA UNIVERSITY RESEARCH AND TECHNOLOGY, published 2012).

Common to all, as to test: cell-based or functional assay
The target of test [1] is T1, GLP-1 receptor (UniProt P43220 24-463, limits assumed).
Test [2] addresses T2, glucagon receptor (UniProt P47871 26-477, limits assumed).
The target of test [3] is T2, glucagon receptor. The source holds these as a separate data set.
For test [4], the target named is T2, glucagon receptor. This is another data set of the same source.
The target of test [5] is T1, GLP-1 receptor. This is another data set of the same source.
Test [6] deals with T2, glucagon receptor. The source holds these as a separate data set.
The target in test [7] is T1, GLP-1 receptor. This is another data set of the same source.
Test [8] concerns the target T2, glucagon receptor. The source holds these as a separate data set.
Test [9] has as its target T1, GLP-1 receptor. The source holds these as a separate data set.

Read-outs that look alike come from different tables or passages of the source. Starred links: 1 amine or outer side, 2 acyl side, 3 side chain; linkers in the order of their positions; H or OH if unused. Positions of bridges follow the written chain, without caps; N, C: chain ends. Non-standard residues stand in square brackets, D forms with d. Groups on a side chain read outwards from the residue. No end group written: not given here. *: point of attachment. γGlu = O=C(O)[C@H](CCC(=O)[*:2])N[*:1]; PEG40kDa = 40 kDa polyethylene glycol; Stearoyl = CCCCCCCCCCCCCCCCCC(=O)*; Palmitoyl = CCCCCCCCCCCCCCCC(=O)*; Dab = NCC[C@H](N)C(=O)O; Aib = CC(C)(N)C(=O)O

T2 sequence (P47871 26-477 limits assumed): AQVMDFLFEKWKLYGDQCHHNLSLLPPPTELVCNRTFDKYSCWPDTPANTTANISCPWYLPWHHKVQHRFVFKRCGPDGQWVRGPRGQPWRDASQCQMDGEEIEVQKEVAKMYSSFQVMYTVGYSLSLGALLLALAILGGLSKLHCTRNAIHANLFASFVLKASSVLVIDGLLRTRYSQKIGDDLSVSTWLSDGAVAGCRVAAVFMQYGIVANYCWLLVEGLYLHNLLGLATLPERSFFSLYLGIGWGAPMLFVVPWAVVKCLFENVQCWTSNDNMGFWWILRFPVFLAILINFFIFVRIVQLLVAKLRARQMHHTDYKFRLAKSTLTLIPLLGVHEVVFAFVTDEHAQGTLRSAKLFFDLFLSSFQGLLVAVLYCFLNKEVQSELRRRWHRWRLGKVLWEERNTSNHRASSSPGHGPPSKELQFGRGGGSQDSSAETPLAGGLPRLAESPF

B1: Peptide Chimera 2-AIB2-K30-acylated (peptide)
peptide: HXQGTFTSDYSKYLDEQAAKEFICWLMNTK
modifications: AIB at 2; Lys acylated with C18 (text says position 10, the name and the sequence say K30); 40 kDa PEG on Cys 24; C-terminal amide
By EC50 is commonly meant the concentration giving half of the maximal effect. A high value points to weaker potency. Turning to B1, in the test with GLP-1 receptor [1], the half-maximal effective concentration (EC50) worked out at 0.007 nM.
For the molecule HS[Dab](Ac)GTFTSDYSKYLD[Aib]RRASDFVSWLLDE [HSDab(Ac)…ibRRASDFVSWLLDE (SEQ ID NO: 605)], in the test with glucagon receptor [2], the “% activity” value was 54% and the response was half-maximal at 0.048 nM (EC50).

B2: HSDab(Ac)…ibRRAADFVAWLLDTGPSSGAPPPS amide (SEQ ID NO: 604) (peptide)
peptide: HS[Dab](Ac)GTFTSDYSKYLD[Aib]RRAADFVAWLLDTGPSSGAPPPS-NH2
modifications: N-terminus assumed
SMILES: CC(=O)NCC[C@H](NC(=O)[C@H](CO)NC(=O)[C@@H](N)Cc1c[nH]cn1)C(=O)NCC(=O)N[C@H](C(=O)N[C@@H](Cc1ccccc1)C(=O)N[C@H](C(=O)N[C@@H](CO)C(=O)N[C@@H](CC(=O)O)C(=O)N[C@@H](Cc1ccc(O)cc1)C(=O)N[C@@H](CO)C(=O)N[C@@H](CCCCN)C(=O)N[C@@H](Cc1ccc(O)cc1)C(=O)N[C@@H](CC(C)C)C(=O)N[C@@H](CC(=O)O)C(=O)NC(C)(C)C(=O)N[C@@H](CCCNC(=N)N)C(=O)N[C@@H](CCCNC(=N)N)C(=O)N[C@@H](C)C(=O)N[C@@H](C)C(=O)N[C@@H](CC(=O)O)C(=O)N[C@@H](Cc1ccccc1)C(=O)N[C@H](C(=O)N[C@@H](C)C(=O)N[C@@H](Cc1c[nH]c2ccccc12)C(=O)N[C@@H](CC(C)C)C(=O)N[C@@H](CC(C)C)C(=O)N[C@@H](CC(=O)O)C(=O)N[C@H](C(=O)NCC(=O)N1CCC[C@H]1C(=O)N[C@@H](CO)C(=O)N[C@@H](CO)C(=O)NCC(=O)N[C@@H](C)C(=O)N1CCC[C@H]1C(=O)N1CCC[C@H]1C(=O)N1CCC[C@H]1C(=O)N[C@@H](CO)C(N)=O)[C@@H](C)O)C(C)C)[C@@H](C)O)[C@@H](C)O
Consider B2, for which, in the test with glucagon receptor [2], the “% activity” value worked out at 113% and the EC50 was 0.023 nM.
As for H[Aib]QGTFTSDYSKYLDEQAAKEFICWLMNT (lactam 16-20) [Peptide Y], the “% activity of native glucagon” value with glucagon receptor [3] is 99.5%.

B3: Chi-2, AIB2, E3, Lys10 C16 no spacer (SEQ ID NO: 647) (peptide)
peptide: H[Aib]EGTFTSDK(Palmitoyl)SKYLDEQAAKEFIAWLMNT-NH2
modifications: N-terminus assumed
SMILES: CCCCCCCCCCCCCCCC(=O)NCCCC[C@H](NC(=O)[C@H](CC(=O)O)NC(=O)[C@H](CO)NC(=O)[C@@H](NC(=O)[C@H](Cc1ccccc1)NC(=O)[C@@H](NC(=O)CNC(=O)[C@H](CCC(=O)O)NC(=O)C(C)(C)NC(=O)[C@@H](N)Cc1c[nH]cn1)[C@@H](C)O)[C@@H](C)O)C(=O)N[C@@H](CO)C(=O)N[C@@H](CCCCN)C(=O)N[C@@H](Cc1ccc(O)cc1)C(=O)N[C@@H](CC(C)C)C(=O)N[C@@H](CC(=O)O)C(=O)N[C@@H](CCC(=O)O)C(=O)N[C@@H](CCC(N)=O)C(=O)N[C@@H](C)C(=O)N[C@@H](C)C(=O)N[C@@H](CCCCN)C(=O)N[C@@H](CCC(=O)O)C(=O)N[C@@H](Cc1ccccc1)C(=O)N[C@H](C(=O)N[C@@H](C)C(=O)N[C@@H](Cc1c[nH]c2ccccc12)C(=O)N[C@@H](CC(C)C)C(=O)N[C@@H](CCSC)C(=O)N[C@@H](CC(N)=O)C(=O)N[C@H](C(N)=O)[C@@H](C)O)[C@@H](C)CC
As for B3, the EC50 with glucagon receptor [4] turned out to be 46.1 nM; in the test with GLP-1 receptor [5], 0.005 nM.
In turn, H[Aib]QGTFTSDK(Stearoyl)SKYLDEQAAKEFIC(PEG40kDa)WLMNT-NH2 [Peptide Chimera 2-AIB2-K10-acylated] displayed an EC50 in the test with GLP-1 receptor [1] of 0.465 nM.

B4: Chi-2, AIB2, I7, Lys10 γE-γE-C16 (SEQ ID NO: 650) (peptide)
peptide: H[Aib]QGTFISDK([γGlu-γGlu-Palmitoyl])SKYLDEQAAKEFIAWLMNT-NH2
modifications: N-terminus assumed
SMILES: CCCCCCCCCCCCCCCC(=O)N[C@@H](CCC(=O)N[C@@H](CCC(=O)NCCCC[C@H](NC(=O)[C@H](CC(=O)O)NC(=O)[C@H](CO)NC(=O)[C@@H](NC(=O)[C@H](Cc1ccccc1)NC(=O)[C@@H](NC(=O)CNC(=O)[C@H](CCC(N)=O)NC(=O)C(C)(C)NC(=O)[C@@H](N)Cc1c[nH]cn1)[C@@H](C)O)[C@@H](C)CC)C(=O)N[C@@H](CO)C(=O)N[C@@H](CCCCN)C(=O)N[C@@H](Cc1ccc(O)cc1)C(=O)N[C@@H](CC(C)C)C(=O)N[C@@H](CC(=O)O)C(=O)N[C@@H](CCC(=O)O)C(=O)N[C@@H](CCC(N)=O)C(=O)N[C@@H](C)C(=O)N[C@@H](C)C(=O)N[C@@H](CCCCN)C(=O)N[C@@H](CCC(=O)O)C(=O)N[C@@H](Cc1ccccc1)C(=O)N[C@H](C(=O)N[C@@H](C)C(=O)N[C@@H](Cc1c[nH]c2ccccc12)C(=O)N[C@@H](CC(C)C)C(=O)N[C@@H](CCSC)C(=O)N[C@@H](CC(N)=O)C(=O)N[C@H](C(N)=O)[C@@H](C)O)[C@@H](C)CC)C(=O)O)C(=O)O
For B4, the half-maximal effective concentration (EC50) with glucagon receptor [4] was determined as 0.007 nM; in the test with GLP-1 receptor [5], 0.01 nM.
Turning to HSQGTFTSDYSKYLDEQAAKEFIC(PEG 40 kDa)WLMNT-NH2 [Chimera 2 Cys24 (40K)], the EC50 turned out to be 2.83 nM in the test with glucagon receptor [6] and 0.04 nM with GLP-1 receptor [7].
For the molecule H[Aib]EGTFTSDK([γGlu-γGlu-Palmitoyl])SKYLDEQAAKEFIAWLMNT [Chi-2, AIB2, E3, Lys10 γE-γE-C16 (SEQ ID NO: 648)], the EC50 with glucagon receptor [4] turned out to be 2.92 nM; in the test with GLP-1 receptor [5] it was 0.004 nM.
In the case of HSQGTFTSDYSKYLDSRRAQDFVQWLVKGGPSSGAPPPS-NH2 [VKGG30 PSSGAPPPS (SEQ ID NO: 524)], in the test with glucagon receptor [8], a half-maximal response (EC50) required 1.16 nM and the “Relative Potency (%)” value is 7%. Further, in the test with GLP-1 receptor [9], the half-maximal effective concentration (EC50) was found to be 0.21 nM and the “Relative Potency (%)” value worked out at 12%.
Consider H[Aib]QGTFTSDYSKYLDEQAAKEFIC([maleimide-PEG 40 kDa])WLMNT [Peptide X-PEG], for which, in the test with glucagon receptor [3], the “% activity of native glucagon” value worked out at 1.9% and the “EC50 (cAMP, CRE-luciferase)” value turned out to be 2.9 nM.
With HSQGTFTSDYSKYLDSRRAQDFVQWLMKGGPSSGAPPPS-NH2 [MKGG30 PSSGAPPPS (SEQ ID NO: 523)], in the test with glucagon receptor [8], the midpoint of the response, the EC50, lay at 0.61 nM and the “Relative Potency (%)” value was 14%. Moreover, in the test with GLP-1 receptor [9], the midpoint of the response, the EC50, lay at 0.8 nM and the “Relative Potency (%)” value was 3%.
The like results for HSQGTFTSDYSKYLDSRRAQDFVQWLMDGGPSSGAPPPS-NH2 [MDGG30 PSSGAPPPS (SEQ ID NO: 525)] were, in that order, 0.12 nM, 72%, 0.13 nM and 19%.
For HS[Dab](Ac)GTFTSDYSKYLD[Aib]RRATDFVTWLLDE [HSDab(Ac)…ibRRATDFVTWLLDE (SEQ ID NO: 606)], in the test with glucagon receptor [2], the “% activity” value worked out at 46% and the EC50 was 0.057 nM.
